Reference: PMC3900260
Like-named read-outs stand apart in the source and are kept apart here.

apurinic/apyrimidinic endonuclease 1 (APE1): K6R/K7R
no change: enzymatic_activity (acetylation at K6) | expression_or_secretion (acetylation at K6) | enzymatic_activity (acetylation at K7) | expression_or_secretion (acetylation at K7)
